B1: MIP-1α (ligand)
chain: SLAADTPTACCFSYTSRQIPQNFIADYFETSSQCSKPGVIFLTKRSRQVCADPSEEWVQKYVSDLELSA
modifications: also: 125I-labeled in tracer form, position not given here
notes: also called MIP-1 alpha; 125I-labeled MIP-1α
B2: RANTES (regulated upon activation, normal T cell expressed and secreted) (ligand)
chain: SPYSSDTTPCCFAYIARPLPRAHIKEYFYTSGKCSNPAVVFVTRKNRQVCANPEKKWVREYINSLEMS
modifications: also: 125I-labeled in tracer form, position not given here
notes: also called 125I-labeled RANTES; 125I-RANTES
B3: secreted HCMV UL21.5 protein (UL21.5 activity in concentrated supernatant of wild-type HCMV-infected human fibroblasts) (other)
chain: APSQKSKRSVTVEQPSTSADGSNTTPSKNVTLSQGGSTTDGDEDYSGEYDVLITDGDGSEHQQPQKTDEHKENQAKENEKKIQ
modifications: highly glycosylated (sites not given)
notes: Not purified: tested as 300-fold concentrated serum-free culture medium of fibroblasts infected with wild-type AD169 virus; Secreted forms of 45 kDa and 25 kDa are cited; also called Wt supernatant; HCMV-infected cell supernatant

Experiments:
[1] = target: B3; assay: EDC cross-linking of 125I-chemokine to infected cell supernatant, SDS-PAGE autoradiogram
[2] = target: B3; assay: summary in the description of the Scatchard analysis of Example 4 (rounded value)
[3] = target: B3; assay: Scatchard analysis, 125I-RANTES (25-500 pM) with infected cell supernatant, PEG precipitation and filtration
interferon-γ = target: T1, interferon-γ (UniProt P01579 24-166); assay: competition of unlabeled cytokine with 125I-RANTES for cross-linking to UL21.5
T1 construct: also called IFN-γ
T1 sequence: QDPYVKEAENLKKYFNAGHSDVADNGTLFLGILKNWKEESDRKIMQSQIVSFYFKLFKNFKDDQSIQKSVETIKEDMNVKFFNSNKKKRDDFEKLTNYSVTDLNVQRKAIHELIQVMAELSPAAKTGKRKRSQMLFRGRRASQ

Q: Does B1 bind [1]?
A: no binding (tested: 0.4 nM 125I-labeled chemokine)

Q: Which results are given for B2?
A: Kd [2]: 0.15 nM; Kd [3]: 0.147 nM

Q: Does B3 bind (interferon-γ)?
A: no binding
